The values below come from patent US20220220215A1 (CRESCENDO BIOLOGICS, published 2022).

One may read the Kd as a measure of binding affinity in units of concentration. High values mean weaker binding, low ones tighter binding. Broadly, the koff is the rate constant with which the complex falls apart. A higher koff goes with fast dissociation. By kon is commonly meant the second-order rate constant of association. A higher kon goes with faster complex formation. For orientation: EC50 means the concentration that produces a half-maximal response.

Assay [1] addresses T1, biotinylated human CD137-His (human, UniProt Q07011 24-186, biotinylated).
T1 construct: not shown: His tag
Briefly: SPR, Biacore 8K, multi-cycle kinetics; biotinylated antigen captured on streptavidin chip; 1:1 model. Here is the method:
(§1) Multi cycle kinetics assays were then used to evaluate the kinetics and affinity of the interaction. Experiments were performed at […] in HBS-EP+ assay buffer with a flow rate of 30 μl/minute. A streptavidin chip (Streptavidin (SA), Series S, GE Healthcare BR100531) was used to capture the biotinylated human CD137 or human PD-1 reaching a maximum of 75RU or 200RU respectively. A second flow cell without any captured antigen was used as the reference cell. […] The binding kinetics were followed by flowing these over the chip surface. The contact time for the binding steps was 360 or 180 seconds and the dissociation step was 3600 or 1200 seconds for human CD137 and PD1 respectively. After each run, the sensors were regenerated with glycine pH 1.5 to remove the captured Humabody® VH. The data was fitted to a 1:1 binding model after reference subtraction using the Biacore Evaluation software. Example kinetic and binding affinity data obtained is shown Table 19.
A general note: In SPR one partner is held on a chip, and binding of the other changes the refractive index at the surface.

For assay [2], the target named is T2, biotinylated human PD-1-His tagged protein (human, UniProt Q15116 25-170, biotinylated).
T2 construct: not shown: His tag
The assay is described as above. The procedure:
as §1

Assay [3] concerns the target human CD137 expressed on cells (Jurkat human CD137 NF-kB luciferase reporter cells; human CD8+ T cells) (human, UniProt Q07011 24-255). Briefly: cell-based or functional assay.
Assay [4] has as its target T3, human PD-1 expressed on CHO cells (human, UniProt Q15116 21-288).
T3 construct: also called CHO huPD1; CHO human PD1 cells
Nature of the assay: FMAT/Mirrorball on CHO huPD1 cells. The procedure: (§2) Binding of His-tagged molecules to CHO human CD137, CHO parent and CHO human PD1 cells was assessed using Fluorescence Microvolume Assay Technology (FMAT). All reagents were prepared in FMAT assay buffer (pH 7.4) containing PBS, 0.1% Bovine Serum Albumin, 0.05% Sodium Azide. […] Fluorescence emission was then measured on the TTP Mirrorball plate reader in the FL2 (502 nm-537 nm) and FL5 (677-800 nm) channels following excitation at 488 nm and 640 nm. Data was gated on FL5 perimeter and peak intensity and the FL2 median mean fluorescence intensity of the gated data used for determination of VH binding. Monovalent CD137 specific Humabody® VH, and trispecific molecules with a CD137 binding arm bound to CHO CD137 expressing cells. Trispecific Humabody® VH, with a PD1 binding arm bound to PD1 expressing cells.

For assay [5], the target named is T4, human CD137 expressed on CHO cells (human, UniProt Q07011 18-255).
T4 construct: also called CHO huCD137; CHO human CD137 cells
Briefly: FMAT/Mirrorball on CHO huCD137 cells. Here is the method:
as §2

B1: TPP-972: CD137A-6GS-PDA-6GS-HSA2-His (bispecific antibody)
chain: EVQLVESGGGLVQPGGSLRLSCAASGFTLSNYWMNWVRQAPGKGLEWVANINQDGSERYYVDSVKGRFTISRDNAKNSLYLQMNSLRAEDTAVYYCARGGEGYGVDHYGLDVSGQGTTVTVSSGGGGSGGGGSGGGGSGGGGSGGGGSGGGGSEVQLVESGGGLVQPGRSLRLSCAASGFTFDDYALHWVRQAPGKDLEWVSGISWNGGSYGYADSVKGRFTISRDNAKNSLYLQMNSLRAEDTALYYCVREKGPGLTGSTADYYGLDAWGQGTMVTVSSGGGGSGGGGSGGGGSGGGGSGGGGSGGGGSEVQLVESGGGLVKPGGSLRLSCAASGFTFSNYNMNWVRQAPGKGLEWVSSISSAGTHIYYADSVKGRFTISRDNAKNSLYLQMNSLRAEDTAVYYCARDPHSTGWYKDFDYWGQGTLVTVSSAAAHHHHHH
In assay [1], B1 had a dissociation constant (Kd) of 0.01 nM, a koff of 1.55e-05 s⁻¹ and a kon of 1.54e+06 M⁻¹ s⁻¹. In assay [2], this molecule displayed an equilibrium dissociation constant (Kd) of 11.8 nM, an off-rate constant (koff) of 0.000761 s⁻¹ and a kon of 64300 M⁻¹ s⁻¹. Moreover, the “Jurkat-CD137/CHO-PD-1 Reporter Assay EC50” value in assay [3] came to 0.321 nM.

B2: TPP-985: CD137D -6GS-HSA2-2-6GS-PDA2-His (bispecific antibody)
chain: EVQLVESGGGVVQPGGSLRLSCAASGFTFSNYGMHWVRQAPGKGLEWVAVISNDGNTKTYADSVKGRFTISRDNSKNTLYLQMNSLRAEDTAVYYCAQDETTTVTASYYFDYWGQGTLVTVSSGGGGSGGGGSGGGGSGGGGSGGGGSGGGGSEVQLVESGGGLVKPGGSLRLSCAASGFTFSNYNMNWVRQAPGKGLEWVSSISSAGTHIYYADSVKGRFTISRDNAKNSLYLQMNSLRAEDTAVYYCARDPHSTGWYKDFDYWGQGTLVTVSSGGGGSGGGGSGGGGSGGGGSGGGGSGGGGSEVQLVESGGGVVRPGGSLRLSCAASGFTFDDYAMSWVRQAPGKGLEWVSGITWNAGSTGYADSVKGRFTISRDNAKNSLYLQMNSLRAEDTALYYCVRDKYSYAWSYDDFDIWGQGTMVTVSSAAAHHHHHH
notes: Single-chain VH fusion (CD137 VH, HSA VH, PD-1 VH), His tag
Consider B2, for which the EC50 worked out at 0.541 nM in assay [4] and 0.382 nM in assay [5].

B3: TPP-983: CD137A -6GS-HSA2-6GS-PDA2-His (bispecific antibody)
chain: EVQLVESGGGLVQPGGSLRLSCAASGFTLSNYWMNWVRQAPGKGLEWVANINQDGSERYYVDSVKGRFTISRDNAKNSLYLQMNSLRAEDTAVYYCARGGEGYGVDHYGLDVSGQGTTVTVSSGGGGSGGGGSGGGGSGGGGSGGGGSGGGGSEVQLVESGGGLVKPGGSLRLSCAASGFTFSNYNMNWVRQAPGKGLEWVSSISSAGTHIYYADSVKGRFTISRDNAKNSLYLQMNSLRAEDTAVYYCARDPHSTGWYKDFDYWGQGTLVTVSSGGGGSGGGGSGGGGSGGGGSGGGGSGGGGSEVQLVESGGGVVRPGGSLRLSCAASGFTFDDYAMSWVRQAPGKGLEWVSGITWNAGSTGYADSVKGRFTISRDNAKNSLYLQMNSLRAEDTALYYCVRDKYSYAWSYDDFDIWGQGTMVTVSSAAAHHHHHH
notes: as for B2
As to B3, the figures for the concentration giving a half-maximal response (EC50) in assay [4] and in assay [5] were 0.24 nM and 0.0443 nM, respectively.

B4: TPP-1023: CD137A -6GS-HSA3-6GS-PDA-His (bispecific antibody)
chain: EVQLVESGGGLVQPGGSLRLSCAASGFTLSNYWMNWVRQAPGKGLEWVANINQDGSERYYVDSVKGRFTISRDNAKNSLYLQMNSLRAEDTAVYYCARGGEGYGVDHYGLDVSGQGTTVTVSSGGGGSGGGGSGGGGSGGGGSGGGGSGGGGSEVQLLESGGGLVKPGGSLRLSCAASGFTVSSYTMNWVRQAPGKGLEWVSSISSSGRYIYYADSVKGRFTISRDNAKNSLYLQMNSLRAEDTAVYYCARDPRMVGNPHEFDIWGQGTMVTVSSGGGGSGGGGSGGGGSGGGGSGGGGSGGGGSEVQLVESGGGLVQPGRSLRLSCAASGFTFDDYALHWVRQAPGKDLEWVSGISWNGGSYGYADSVKGRFTISRDNAKNSLYLQMNSLRAEDTALYYCVREKGPGLTGSTADYYGLDAWGQGTMVTVSSAAAHHHHHH
notes: as for B2
In the case of B4, the 50% effective concentration (EC50) in assay [4] is 0.626 nM; in assay [5], 0.145 nM.

B5: TPP-973: CD137A-6GS-PDA2-6GS-HSA2-His (bispecific antibody)
chain: EVQLVESGGGLVQPGGSLRLSCAASGFTLSNYWMNWVRQAPGKGLEWVANINQDGSERYYVDSVKGRFTISRDNAKNSLYLQMNSLRAEDTAVYYCARGGEGYGVDHYGLDVSGQGTTVTVSSGGGGSGGGGSGGGGSGGGGSGGGGSGGGGSEVQLVESGGGVVRPGGSLRLSCAASGFTFDDYAMSWVRQAPGKGLEWVSGITWNAGSTGYADSVKGRFTISRDNAKNSLYLQMNSLRAEDTALYYCVRDKYSYAWSYDDFDIWGQGTMVTVSSGGGGSGGGGSGGGGSGGGGSGGGGSGGGGSEVQLVESGGGLVKPGGSLRLSCAASGFTFSNYNMNWVRQAPGKGLEWVSSISSAGTHIYYADSVKGRFTISRDNAKNSLYLQMNSLRAEDTAVYYCARDPHSTGWYKDFDYWGQGTLVTVSSAAAHHHHHH
In assay [1], B5 came in with a dissociation constant Kd of 0.108 nM, a dissociation rate constant (koff) of 2.57e-05 s⁻¹ and a kon of 237000 M⁻¹ s⁻¹. In assay [2], this molecule gave an equilibrium dissociation constant (Kd) of 71.6 nM, a koff of 0.014 s⁻¹ and an on-rate (kon) of 195000 M⁻¹ s⁻¹. For the same molecule, the “Jurkat-CD137/CHO-PD-1 Reporter Assay EC50” value in assay [3] worked out at 0.254 nM.

B6: TPP-984: CD137D -6GS-HSA2-6GS-PDA-His (bispecific antibody)
chain: EVQLVESGGGVVQPGGSLRLSCAASGFTFSNYGMHWVRQAPGKGLEWVAVISNDGNTKTYADSVKGRFTISRDNSKNTLYLQMNSLRAEDTAVYYCAQDETTTVTASYYFDYWGQGTLVTVSSGGGGSGGGGSGGGGSGGGGSGGGGSGGGGSEVQLVESGGGLVKPGGSLRLSCAASGFTFSNYNMNWVRQAPGKGLEWVSSISSAGTHIYYADSVKGRFTISRDNAKNSLYLQMNSLRAEDTAVYYCARDPHSTGWYKDFDYWGQGTLVTVSSGGGGSGGGGSGGGGSGGGGSGGGGSGGGGSEVQLVESGGGLVQPGRSLRLSCAASGFTFDDYALHWVRQAPGKDLEWVSGISWNGGSYGYADSVKGRFTISRDNAKNSLYLQMNSLRAEDTALYYCVREKGPGLTGSTADYYGLDAWGQGTMVTVSSAAAHHHHHH
notes: as for B2
For B6, the EC50 worked out at 0.264 nM in assay [4] and 0.314 nM in assay [5].

B7: TPP-982: CD137A -6GS-HSA2-6GS-PDA-His (bispecific antibody)
chain: EVQLVESGGGLVQPGGSLRLSCAASGFTLSNYWMNWVRQAPGKGLEWVANINQDGSERYYVDSVKGRFTISRDNAKNSLYLQMNSLRAEDTAVYYCARGGEGYGVDHYGLDVSGQGTTVTVSSGGGGSGGGGSGGGGSGGGGSGGGGSGGGGSEVQLVESGGGLVKPGGSLRLSCAASGFTFSNYNMNWVRQAPGKGLEWVSSISSAGTHIYYADSVKGRFTISRDNAKNSLYLQMNSLRAEDTAVYYCARDPHSTGWYKDFDYWGQGTLVTVSSGGGGSGGGGSGGGGSGGGGSGGGGSGGGGSEVQLVESGGGLVQPGRSLRLSCAASGFTFDDYALHWVRQAPGKDLEWVSGISWNGGSYGYADSVKGRFTISRDNAKNSLYLQMNSLRAEDTALYYCVREKGPGLTGSTADYYGLDAWGQGTMVTVSSAAAHHHHHH
notes: as for B2
As to B7, the EC50 was found to be 0.332 nM in assay [4] and 0.0896 nM in assay [5].

B8: TPP-969: PDA-6GS-HSA2-6GS-172E1-13-His (bispecific antibody)
chain: EVQLVESGGGLVQPGRSLRLSCAASGFTFDDYALHWVRQAPGKDLEWVSGISWNGGSYGYADSVKGRFTISRDNAKNSLYLQMNSLRAEDTALYYCVREKGPGLTGSTADYYGLDAWGQGTMVTVSSGGGGSGGGGSGGGGSGGGGSGGGGSGGGGSEVQLVESGGGLVKPGGSLRLSCAASGFTFSNYNMNWVRQAPGKGLEWVSSISSAGTHIYYADSVKGRFTISRDNAKNSLYLQMNSLRAEDTAVYYCARDPHSTGWYKDFDYWGQGTLVTVSSGGGGSGGGGSGGGGSGGGGSGGGGSGGGGSEVQLVESGGGVVQPGGSLRLSCAASGFTFSNYGMHWVRQAPGKGLEWVAVISNDGNTKTYADSVKGRFTISRDNSKNTLYLQMNSLRAEDTAVYYCAQDETTTVTASYYFDYWGQGTLVTVSSAAAHHHHHH
Consider B8, for which, in assay [1], the Kd amounted to 20.9 nM, the dissociation rate constant (koff) is 0.00255 s⁻¹ and the kon came to 122000 M⁻¹ s⁻¹. In assay [2], this molecule displayed a Kd of 13.4 nM, a koff of 0.000915 s⁻¹ and an on-rate constant (kon) of 68500 M⁻¹ s⁻¹. The “Jurkat-CD137/CHO-PD-1 Reporter Assay EC50” value in assay [3] was found to be 11.1 nM.
